{
  "source": "paper PMC3433420",
  "origin": "cited, not measured here",
  "conditions_in_all_cases": "cited from earlier work",
  "key": {"TNS3 (Homo sapiens)": {"target": "TNS3 (Homo sapiens) (UniProt Q68CZ2)", "sequence (Q68CZ2 1167-1287)": "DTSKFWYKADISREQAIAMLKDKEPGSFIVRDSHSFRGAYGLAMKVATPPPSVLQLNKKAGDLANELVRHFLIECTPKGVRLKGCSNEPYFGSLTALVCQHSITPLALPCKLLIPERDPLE"}, "LYN (Homo sapiens)": {"target": "LYN (Homo sapiens) (UniProt P07948)", "sequence (P07948 124-231)": "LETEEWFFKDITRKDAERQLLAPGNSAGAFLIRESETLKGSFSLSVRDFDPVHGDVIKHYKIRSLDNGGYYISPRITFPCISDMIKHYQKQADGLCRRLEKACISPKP"}, "PLCG1-NC (Homo sapiens) [1]": {"target": "PLCG1-NC (Homo sapiens) (UniProt P19174)", "sequence (P19174 545-761)": "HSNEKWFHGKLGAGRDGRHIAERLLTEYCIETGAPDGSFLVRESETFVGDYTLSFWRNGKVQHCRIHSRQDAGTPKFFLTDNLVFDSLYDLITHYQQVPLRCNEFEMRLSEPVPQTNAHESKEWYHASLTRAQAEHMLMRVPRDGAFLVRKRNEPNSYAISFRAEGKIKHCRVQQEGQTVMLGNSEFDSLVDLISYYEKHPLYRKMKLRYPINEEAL"}, "PIK3R3-N (Homo sapiens)": {"target": "PIK3R3-N (Homo sapiens) (UniProt Q92569)"}, "BCAR3 (Homo sapiens)": {"target": "BCAR3 (Homo sapiens) (UniProt O75815)", "sequence (O75815 149-258)": "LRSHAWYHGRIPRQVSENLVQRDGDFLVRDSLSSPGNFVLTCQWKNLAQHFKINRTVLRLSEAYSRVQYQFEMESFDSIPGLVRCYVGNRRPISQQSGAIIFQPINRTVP"}, "PIK3R1-N (Homo sapiens)": {"target": "PIK3R1-N (Homo sapiens) (UniProt P27986)", "sequence (P27986 328-723)": "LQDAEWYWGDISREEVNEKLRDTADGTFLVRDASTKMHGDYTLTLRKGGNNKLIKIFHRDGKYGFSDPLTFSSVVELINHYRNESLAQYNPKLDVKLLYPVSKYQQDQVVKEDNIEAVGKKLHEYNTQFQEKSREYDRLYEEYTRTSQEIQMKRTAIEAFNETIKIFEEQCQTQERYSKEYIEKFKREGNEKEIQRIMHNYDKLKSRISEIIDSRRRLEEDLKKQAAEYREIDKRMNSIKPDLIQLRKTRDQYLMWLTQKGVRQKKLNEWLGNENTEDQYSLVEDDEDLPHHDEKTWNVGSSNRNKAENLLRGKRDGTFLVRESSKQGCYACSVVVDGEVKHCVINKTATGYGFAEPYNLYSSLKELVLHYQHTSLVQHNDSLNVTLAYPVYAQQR"}, "ABL2 (Homo sapiens) [2]": {"target": "ABL2 (Homo sapiens) (UniProt P42684)", "sequence (P42684 168-268)": "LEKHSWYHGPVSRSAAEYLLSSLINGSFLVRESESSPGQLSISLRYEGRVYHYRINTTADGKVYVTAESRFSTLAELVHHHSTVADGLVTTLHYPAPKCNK"}, "PIK3R2-N (Homo sapiens) [3]": {"target": "PIK3R2-N (Homo sapiens) (UniProt O00459)", "sequence (O00459 325-721)": "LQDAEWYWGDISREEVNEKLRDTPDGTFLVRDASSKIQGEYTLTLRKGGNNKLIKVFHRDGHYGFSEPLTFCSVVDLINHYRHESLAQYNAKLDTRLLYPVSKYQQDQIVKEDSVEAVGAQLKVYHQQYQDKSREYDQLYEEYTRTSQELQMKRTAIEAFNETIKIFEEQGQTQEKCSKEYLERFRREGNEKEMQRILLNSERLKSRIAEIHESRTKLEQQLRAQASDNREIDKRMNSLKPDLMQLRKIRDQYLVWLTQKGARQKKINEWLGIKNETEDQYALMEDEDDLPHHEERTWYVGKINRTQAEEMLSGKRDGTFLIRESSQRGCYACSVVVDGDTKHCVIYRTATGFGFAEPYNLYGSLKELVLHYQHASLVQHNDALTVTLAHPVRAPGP"}, "ITK (Homo sapiens)": {"target": "ITK (Homo sapiens) (UniProt Q08881)", "sequence (Q08881 234-343)": "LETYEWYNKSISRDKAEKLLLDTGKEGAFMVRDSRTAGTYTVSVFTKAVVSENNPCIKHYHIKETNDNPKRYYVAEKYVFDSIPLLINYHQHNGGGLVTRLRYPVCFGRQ"}, "PLCG2-NC (Homo sapiens)": {"target": "PLCG2-NC (Homo sapiens) (UniProt P16885)", "sequence (P16885 527-740)": "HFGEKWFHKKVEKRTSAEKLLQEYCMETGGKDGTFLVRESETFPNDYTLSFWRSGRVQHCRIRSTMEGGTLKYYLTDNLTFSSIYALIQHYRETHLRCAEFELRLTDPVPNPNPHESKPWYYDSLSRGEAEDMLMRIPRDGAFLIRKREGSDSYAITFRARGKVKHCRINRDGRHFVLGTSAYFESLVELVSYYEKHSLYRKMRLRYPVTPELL"}, "FGR (Homo sapiens)": {"target": "FGR (Homo sapiens) (UniProt P09769)"}, "SLA (Homo sapiens) [4]": {"target": "SLA (Homo sapiens) (UniProt Q13239)", "sequence (Q13239 79-180)": "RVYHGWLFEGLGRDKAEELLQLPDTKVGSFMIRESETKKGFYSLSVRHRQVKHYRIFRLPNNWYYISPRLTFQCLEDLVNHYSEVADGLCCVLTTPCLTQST"}, "GRB2 (Homo sapiens)": {"target": "GRB2 (Homo sapiens) (UniProt P62993)", "sequence (P62993 55-157)": "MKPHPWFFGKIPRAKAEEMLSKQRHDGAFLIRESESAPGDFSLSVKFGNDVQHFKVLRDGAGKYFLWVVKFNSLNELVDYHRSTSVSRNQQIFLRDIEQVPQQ"}, "SRC (Homo sapiens)": {"target": "SRC (Homo sapiens) (UniProt P12931)"}, "GRAP2 (Homo sapiens)": {"target": "GRAP2 (Homo sapiens) (UniProt O75791)", "sequence (O75791 53-154)": "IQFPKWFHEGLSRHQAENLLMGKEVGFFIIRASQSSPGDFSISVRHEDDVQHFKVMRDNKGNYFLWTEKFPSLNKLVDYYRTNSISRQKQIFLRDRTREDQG"}, "PIK3R2-NC (Homo sapiens)": {"target": "PIK3R2-NC (Homo sapiens) (UniProt O00459)", "sequence (O00459 325-721)": "as the sequence (O00459 325-721) above"}, "CRK (Homo sapiens) [5]": {"target": "CRK (Homo sapiens) (UniProt P46108)", "sequence (P46108 8-123)": "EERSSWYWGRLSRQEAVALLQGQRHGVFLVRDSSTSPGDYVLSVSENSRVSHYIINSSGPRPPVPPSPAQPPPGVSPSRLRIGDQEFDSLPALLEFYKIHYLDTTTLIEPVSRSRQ"}, "RASA1-N (Homo sapiens) [6]": {"target": "RASA1-N (Homo sapiens) (UniProt P20936)", "sequence (P20936 176-446)": "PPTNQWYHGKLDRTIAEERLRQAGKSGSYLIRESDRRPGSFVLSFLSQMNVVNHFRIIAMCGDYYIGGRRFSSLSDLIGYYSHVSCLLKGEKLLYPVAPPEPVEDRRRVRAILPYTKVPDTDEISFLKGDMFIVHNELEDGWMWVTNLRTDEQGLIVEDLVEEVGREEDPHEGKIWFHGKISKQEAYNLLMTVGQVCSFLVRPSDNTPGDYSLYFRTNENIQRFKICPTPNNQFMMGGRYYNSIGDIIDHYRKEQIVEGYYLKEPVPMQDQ"}, "BLK (Homo sapiens)": {"target": "BLK (Homo sapiens) (UniProt P51451)", "sequence (P51451 119-225)": "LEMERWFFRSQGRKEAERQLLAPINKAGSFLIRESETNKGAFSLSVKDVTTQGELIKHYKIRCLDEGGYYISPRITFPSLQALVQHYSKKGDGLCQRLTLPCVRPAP"}, "SH2D2A (Homo sapiens)": {"target": "SH2D2A (Homo sapiens) (UniProt Q9NP31)", "sequence (Q9NP31 90-191)": "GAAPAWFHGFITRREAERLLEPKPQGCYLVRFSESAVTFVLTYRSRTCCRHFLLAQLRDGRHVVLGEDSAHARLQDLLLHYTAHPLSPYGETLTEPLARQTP"}, "GRB7 (Homo sapiens)": {"target": "GRB7 (Homo sapiens) (UniProt Q14451)", "sequence (Q14451 426-532)": "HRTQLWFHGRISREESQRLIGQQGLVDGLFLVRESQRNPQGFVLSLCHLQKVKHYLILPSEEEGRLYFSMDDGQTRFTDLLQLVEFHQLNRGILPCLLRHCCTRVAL"}, "TENC1 (Homo sapiens)": {"target": "TENC1 (Homo sapiens) (UniProt Q63HR2)", "sequence (Q63HR2 1135-1252)": "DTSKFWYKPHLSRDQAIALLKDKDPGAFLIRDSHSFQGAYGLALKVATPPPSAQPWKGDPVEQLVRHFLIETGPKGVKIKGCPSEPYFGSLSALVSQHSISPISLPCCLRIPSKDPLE"}, "SYK-NC (Homo sapiens) [7]": {"target": "SYK-NC (Homo sapiens) (UniProt P43405)"}, "SH3BP2 (Homo sapiens)": {"target": "SH3BP2 (Homo sapiens) (UniProt P78314)", "sequence (P78314 452-560)": "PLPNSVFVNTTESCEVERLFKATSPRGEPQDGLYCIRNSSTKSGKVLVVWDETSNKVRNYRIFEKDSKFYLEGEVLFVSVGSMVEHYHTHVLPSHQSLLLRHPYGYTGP"}, "PTPN11-NC (Homo sapiens)": {"target": "PTPN11-NC (Homo sapiens) (UniProt Q06124)"}, "BMX (Homo sapiens)": {"target": "BMX (Homo sapiens) (UniProt P51813)", "sequence (P51813 291-397)": "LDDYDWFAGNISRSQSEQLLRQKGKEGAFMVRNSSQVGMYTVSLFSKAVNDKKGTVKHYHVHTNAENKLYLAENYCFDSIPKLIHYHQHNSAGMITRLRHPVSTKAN"}, "PIK3R3-C (Homo sapiens)": {"target": "PIK3R3-C (Homo sapiens) (UniProt Q92569)"}, "CRKL (Homo sapiens) [8]": {"target": "CRKL (Homo sapiens) (UniProt P46109)", "sequence (P46109 9-107)": "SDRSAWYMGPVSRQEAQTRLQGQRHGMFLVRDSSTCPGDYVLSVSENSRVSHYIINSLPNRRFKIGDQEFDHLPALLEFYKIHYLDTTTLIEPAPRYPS"}, "PIK3R3-NC (Homo sapiens) [9]": {"target": "PIK3R3-NC (Homo sapiens) (UniProt Q92569)"}, "NCK2 (Homo sapiens) [10]": {"target": "NCK2 (Homo sapiens) (UniProt O43639)", "sequence (O43639 280-380)": "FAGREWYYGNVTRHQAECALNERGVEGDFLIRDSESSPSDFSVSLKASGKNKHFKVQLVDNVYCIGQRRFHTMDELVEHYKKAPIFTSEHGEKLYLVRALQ"}, "PLCG1-C (Homo sapiens) [11]": {"target": "PLCG1-C (Homo sapiens) (UniProt P19174)", "sequence (P19174 545-761)": "as the sequence (P19174 545-761) above"}, "VAV1 (Homo sapiens) [12]": {"target": "VAV1 (Homo sapiens) (UniProt P15498)", "sequence (P15498 666-770)": "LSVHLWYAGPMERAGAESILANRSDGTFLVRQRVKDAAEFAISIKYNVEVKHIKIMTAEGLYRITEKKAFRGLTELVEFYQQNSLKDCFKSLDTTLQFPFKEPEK"}, "PIK3R1-NC (Homo sapiens)": {"target": "PIK3R1-NC (Homo sapiens) (UniProt P27986)", "sequence (P27986 328-723)": "as the sequence (P27986 328-723) above"}, "VAV2 (Homo sapiens) [13]": {"target": "VAV2 (Homo sapiens) (UniProt P52735)", "sequence (P52735 668-772)": "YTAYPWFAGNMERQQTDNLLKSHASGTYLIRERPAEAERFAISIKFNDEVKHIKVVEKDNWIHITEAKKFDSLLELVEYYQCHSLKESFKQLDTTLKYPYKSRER"}, "ABL1 (Homo sapiens)": {"target": "ABL1 (Homo sapiens) (UniProt P00519)", "sequence (P00519 122-222)": "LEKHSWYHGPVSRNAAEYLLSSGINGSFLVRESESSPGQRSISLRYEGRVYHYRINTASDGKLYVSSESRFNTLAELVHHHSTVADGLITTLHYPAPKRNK"}, "HCK (Homo sapiens)": {"target": "HCK (Homo sapiens) (UniProt P08631)", "sequence (P08631 139-246)": "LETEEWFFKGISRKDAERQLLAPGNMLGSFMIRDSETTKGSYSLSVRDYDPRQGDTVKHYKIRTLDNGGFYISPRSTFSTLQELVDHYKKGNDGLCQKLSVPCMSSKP"}, "VAV1 (Homo sapiens) [14]": {"target": "VAV1 (Homo sapiens) (UniProt P15498)", "remark": "listed apart in the source"}, "PIK3R3-NC (Homo sapiens) [15]": {"target": "PIK3R3-NC (Homo sapiens) (UniProt Q92569)", "remark": "listed apart in the source"}, "VAV3 (Homo sapiens)": {"target": "VAV3 (Homo sapiens) (UniProt Q9UKW4)", "sequence (Q9UKW4 667-771)": "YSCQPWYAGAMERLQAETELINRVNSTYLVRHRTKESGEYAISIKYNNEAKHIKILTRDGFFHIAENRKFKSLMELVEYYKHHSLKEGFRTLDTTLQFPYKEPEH"}, "VAV2 (Homo sapiens) [16]": {"target": "VAV2 (Homo sapiens) (UniProt P52735)", "remark": "listed apart in the source"}, "RASA1-N (Homo sapiens) [17]": {"target": "RASA1-N (Homo sapiens) (UniProt P20936)", "remark": "listed apart in the source"}, "CRKL (Homo sapiens) [18]": {"target": "CRKL (Homo sapiens) (UniProt P46109)", "remark": "listed apart in the source"}, "ABL2 (Homo sapiens) [19]": {"target": "ABL2 (Homo sapiens) (UniProt P42684)", "remark": "listed apart in the source"}, "ABL2 (Homo sapiens) [20]": {"target": "ABL2 (Homo sapiens) (UniProt P42684)", "remark": "listed apart in the source"}, "RASA1-N (Homo sapiens) [21]": {"target": "RASA1-N (Homo sapiens) (UniProt P20936)", "remark": "listed apart in the source"}, "SYK-NC (Homo sapiens) [22]": {"target": "SYK-NC (Homo sapiens) (UniProt P43405)", "remark": "listed apart in the source"}, "PLCG1-NC (Homo sapiens) [23]": {"target": "PLCG1-NC (Homo sapiens) (UniProt P19174)", "remark": "listed apart in the source"}, "SLA (Homo sapiens) [24]": {"target": "SLA (Homo sapiens) (UniProt Q13239)", "remark": "listed apart in the source"}, "VAV2 (Homo sapiens) [25]": {"target": "VAV2 (Homo sapiens) (UniProt P52735)", "remark": "listed apart in the source"}, "PIK3R2-N (Homo sapiens) [26]": {"target": "PIK3R2-N (Homo sapiens) (UniProt O00459)", "remark": "listed apart in the source"}, "PTPN11-N (Homo sapiens)": {"target": "PTPN11-N (Homo sapiens) (UniProt Q06124)"}, "NCK2 (Homo sapiens) [27]": {"target": "NCK2 (Homo sapiens) (UniProt O43639)", "remark": "listed apart in the source"}, "PLCG1-C (Homo sapiens) [28]": {"target": "PLCG1-C (Homo sapiens) (UniProt P19174)", "remark": "listed apart in the source"}, "CRK (Homo sapiens) [29]": {"target": "CRK (Homo sapiens) (UniProt P46108)", "remark": "listed apart in the source"}},
  "note": "Read-outs that look alike come from different tables or passages of the source.",
  "data": [
    {"substance": "…pYVNQPDVR", "values": [
      {"measurement": "apparent Kd (screen)", "setting": "TNS3 (Homo sapiens)", "result": 765, "unit": "nM"},
      {"measurement": "apparent Kd (screen)", "setting": "LYN (Homo sapiens)", "result": 2000, "unit": "nM"},
      {"measurement": "apparent Kd (screen)", "setting": "PLCG1-NC (Homo sapiens) [1]", "result": 2000, "unit": "nM"},
      {"measurement": "apparent Kd (screen)", "setting": "PIK3R3-N (Homo sapiens)", "result": 395, "unit": "nM"},
      {"measurement": "apparent Kd (screen)", "setting": "BCAR3 (Homo sapiens)", "result": 1000, "unit": "nM"},
      {"measurement": "apparent Kd (screen)", "setting": "PIK3R1-N (Homo sapiens)", "result": 508, "unit": "nM"},
      {"measurement": "apparent Kd (screen)", "setting": "ABL2 (Homo sapiens) [2]", "result": 71, "unit": "nM"},
      {"measurement": "apparent Kd (screen)", "setting": "PIK3R2-N (Homo sapiens) [3]", "result": 281, "unit": "nM"},
      {"measurement": "apparent Kd (screen)", "setting": "ITK (Homo sapiens)", "result": 1510, "unit": "nM"},
      {"measurement": "apparent Kd (screen)", "setting": "PLCG2-NC (Homo sapiens)", "result": 1280, "unit": "nM"},
      {"measurement": "apparent Kd (screen)", "setting": "FGR (Homo sapiens)", "result": 454, "unit": "nM"},
      {"measurement": "apparent Kd (screen)", "setting": "SLA (Homo sapiens) [4]", "result": 2000, "unit": "nM"},
      {"measurement": "apparent Kd (screen)", "setting": "GRB2 (Homo sapiens)", "result": 76, "unit": "nM"},
      {"measurement": "apparent Kd (screen)", "setting": "SRC (Homo sapiens)", "result": 2000, "unit": "nM"},
      {"measurement": "apparent Kd (screen)", "setting": "GRAP2 (Homo sapiens)", "result": 958, "unit": "nM"},
      {"measurement": "apparent Kd (screen)", "setting": "PIK3R2-NC (Homo sapiens)", "result": 776, "unit": "nM"},
      {"measurement": "apparent Kd (screen)", "setting": "CRK (Homo sapiens) [5]", "result": 2000, "unit": "nM"},
      {"measurement": "apparent Kd (screen)", "setting": "RASA1-N (Homo sapiens) [6]", "result": 675, "unit": "nM"},
      {"measurement": "apparent Kd (screen)", "setting": "BLK (Homo sapiens)", "result": 2000, "unit": "nM"},
      {"measurement": "apparent Kd (screen)", "setting": "SH2D2A (Homo sapiens)", "result": 980, "unit": "nM"},
      {"measurement": "apparent Kd (screen)", "setting": "GRB7 (Homo sapiens)", "result": 2000, "unit": "nM"},
      {"measurement": "apparent Kd (screen)", "setting": "TENC1 (Homo sapiens)", "result": 565, "unit": "nM"},
      {"measurement": "apparent Kd (screen)", "setting": "SYK-NC (Homo sapiens) [7]", "result": 973, "unit": "nM"},
      {"measurement": "apparent Kd (screen)", "setting": "SH3BP2 (Homo sapiens)", "result": 406, "unit": "nM"},
      {"measurement": "apparent Kd (screen)", "setting": "PTPN11-NC (Homo sapiens)", "result": 877, "unit": "nM"},
      {"measurement": "apparent Kd (screen)", "setting": "BMX (Homo sapiens)", "result": 520, "unit": "nM"},
      {"measurement": "apparent Kd (screen)", "setting": "PIK3R3-C (Homo sapiens)", "result": 1220, "unit": "nM"},
      {"measurement": "apparent Kd (screen)", "setting": "CRKL (Homo sapiens) [8]", "result": 2000, "unit": "nM"},
      {"measurement": "apparent Kd (screen)", "setting": "PIK3R3-NC (Homo sapiens) [9]", "result": 304, "unit": "nM"},
      {"measurement": "apparent Kd (screen)", "setting": "NCK2 (Homo sapiens) [10]", "result": 777, "unit": "nM"},
      {"measurement": "apparent Kd (screen)", "setting": "PLCG1-C (Homo sapiens) [11]", "result": 1930, "unit": "nM"},
      {"measurement": "apparent Kd (screen)", "setting": "VAV1 (Homo sapiens) [12]", "result": 206, "unit": "nM"},
      {"measurement": "apparent Kd (screen)", "setting": "PIK3R1-NC (Homo sapiens)", "result": 741, "unit": "nM"},
      {"measurement": "apparent Kd (screen)", "setting": "VAV2 (Homo sapiens) [13]", "result": 226, "unit": "nM"},
      {"measurement": "apparent Kd (screen)", "setting": "ABL1 (Homo sapiens)", "result": 157, "unit": "nM"},
      {"measurement": "apparent Kd (screen)", "setting": "HCK (Homo sapiens)", "result": 2000, "unit": "nM"}
    ]},
    {"substance": "…pYLNPVEENd", "values": [
      {"measurement": "apparent Kd (screen)", "setting": "VAV1 (Homo sapiens) [14]", "result": 2000, "unit": "nM"},
      {"measurement": "apparent Kd (screen)", "setting": "PIK3R3-NC (Homo sapiens) [15]", "result": 2000, "unit": "nM"},
      {"measurement": "apparent Kd (screen)", "setting": "VAV3 (Homo sapiens)", "result": 2000, "unit": "nM"},
      {"measurement": "apparent Kd (screen)", "setting": "VAV2 (Homo sapiens) [16]", "result": 100, "unit": "nM"},
      {"measurement": "apparent Kd (screen)", "setting": "RASA1-N (Homo sapiens) [17]", "result": 2000, "unit": "nM"},
      {"measurement": "apparent Kd (screen)", "setting": "CRKL (Homo sapiens) [18]", "result": 2000, "unit": "nM"},
      {"measurement": "apparent Kd (screen)", "setting": "ABL2 (Homo sapiens) [19]", "result": 316, "unit": "nM"},
      {"measurement": "apparent Kd (screen)", "setting": "ABL2 (Homo sapiens) [20]", "result": 283, "unit": "nM"},
      {"measurement": "apparent Kd (screen)", "setting": "RASA1-N (Homo sapiens) [21]", "result": 983, "unit": "nM"},
      {"measurement": "apparent Kd (screen)", "setting": "SYK-NC (Homo sapiens) [22]", "result": 2000, "unit": "nM"},
      {"measurement": "apparent Kd (screen)", "setting": "PLCG1-NC (Homo sapiens) [23]", "result": 2000, "unit": "nM"},
      {"measurement": "apparent Kd (screen)", "setting": "SLA (Homo sapiens) [24]", "result": 2000, "unit": "nM"},
      {"measurement": "apparent Kd (screen)", "setting": "VAV2 (Homo sapiens) [25]", "result": 2000, "unit": "nM"},
      {"measurement": "apparent Kd (screen)", "setting": "PIK3R2-N (Homo sapiens) [26]", "result": 2000, "unit": "nM"},
      {"measurement": "apparent Kd (screen)", "setting": "PTPN11-N (Homo sapiens)", "result": 2000, "unit": "nM"},
      {"measurement": "apparent Kd (screen)", "setting": "NCK2 (Homo sapiens) [27]", "result": 2000, "unit": "nM"},
      {"measurement": "apparent Kd (screen)", "setting": "PLCG1-C (Homo sapiens) [28]", "result": 2000, "unit": "nM"},
      {"measurement": "apparent Kd (screen)", "setting": "CRK (Homo sapiens) [29]", "result": 2000, "unit": "nM"}
    ]}
  ]
}
